Results: patent US20060019241A1, “Na+ and CI-coupled transport system for endogenous opioid peptides” (priority 2004, published 2006)
Ends that are not written are not given here.

Experiments:
[1] = molecular target: Na+- and Cl--coupled transport system for endogenous opioid peptides (human cell lines ARPE-19, Tat-ARPE-19 and SK-N-SH) (human); assay: cell-based or functional assay
[2] = system: deltorphin II transport system in Tat-ARPE-19 cells; assay: Inhibition of [^3H]deltorphin II uptake in Tat-ARPE-19 cells; assay type: cell-based, human; conditions: [^3H]deltorphin II 50 nM; for competition with deltorphin for the uptake process (in words): Tat-ARPE-19 / RPE cells, compound 1 mM; for [^3H] Deltorphin II uptake / [^3H] Deltorphin II uptake (%) of control: Tat-ARPE-19 cells, 30 minutes, NaCl, inhibitor 1 mM; for [^3H] Deltorphin II uptake (%) of control: control = 100
Description: Stable transfection of ARPE-19 cells with pcDNA-Tat cDNA. The pGEM2-Tat cDNA construct contained as the insert a 295 basepair (bp) fragment encoding the first exon of HIV-1 Tat gene joined to a 145 bp pET3A transcription terminator. The entire insert (440 bp) was removed from the construct by digestion with PstI and EcoRI and ligated into the multiple cloning region of pcDNA3.1 (−) vector at PstI/EcoRI site so that the insert is downstream of the cytomegalovirus (CMV) promoter. The resultant construct was sequenced to confirm the orientation of the insert. This construct was electroporated into ARPE-19 cells and the stably transfected cell clones were isolated in the presence of Geneticin (G418). To serve as a control, empty pcDNA3.1 vector was electroporated into ARPE-19 cells in an identical manner and the clones harboring the vector were selected by G418 resistance.
Uptake measurements in control ARPE-19 cells and Tat-ARPE-19 cells. Control ARPE-19 cells and Tat-ARPE-19 cells were maintained in 75-cm^2 culture flasks in Dulbecco's modified Eagle's medium/F12 medium (1:1, volume/volume (v/v)) in the presence of fetal bovine serum (10%) and G418 (100 μg/ml). For uptake measurements, cells were released by trypsin treatment and seeded in 24-well culture plates at an initial density of 0.1×10^6 cells/well. The culture medium was replaced with fresh medium on the second day following the initial seeding and uptake measurements were made on the third day. […] After incubation at 37° C. for a desired time, uptake was terminated by the removal of the medium and washing of the cells with ice-cold uptake buffer. The cells were then dissolved in 1% SDS in 0.2 M NaOH and used for measurement of radioactivity. The uptake buffer in most experiments was 25 mM Hepes/Tris (pH 7.5), containing 140 mM NaCl, 5.4 mM KCl, 1.8 mM CaCl2, 0.8 mM MgSO4 and 5 mM glucose.
When the influence of Na^+ on the uptake process was investigated, the concentration of NaCl in the uptake buffer was adjusted, as desired, by isoosmotically replacing NaCl with N-methyl-D-glucamine chloride. To assess the influence of Cl^− on the uptake process, the composition of the uptake medium was modified by replacing KCl and CaCl2 with equimolar concentrations of potassium gluconate and calcium gluconate and the concentration of NaCl was adjusted, as desired, by iso-osmotically replacing NaCl with sodium gluconate. Saturation kinetics were analysed by fitting the data to the Michaelis-Menten equation. The Michaelis-Menten constant, Kt, was calculated by non-linear regression analysis and then confirmed by linear regression. Na^+- and Cl^−-activation kinetics were analyzed by fitting the data to the Hill equation and the Hill coefficients for Na^+ and Cl^− (h; the number of Na^+ and Cl^− ions involved in the activation process) and the K0.5 values (the concentration of Na^+ and Cl^−-needed for half-maximal activation) were determined from the analysis. Again, these constants were first calculated by non-linear regression methods and subsequently confirmed by linear regression methods. Experiments were repeated three times in duplicate and the results are given as means±S.E.M.
Substrate specificity of the deltorphin transport system. […] These peptides consisted of 4-13 amino acids.
Relative affinities of endogenous opioid peptides for the transport system.

Molecule | [3H]deltorphin II (50 nM) uptake in Tat-ARPE-19 cells, 30 min, NaCl, inhibitor 1 mM (pmol/mg protein/30 min) [1] | [3H]deltorphin II uptake (%) in Tat-ARPE-19 cells, inhibitor 1 mM [1] | competition with deltorphin for the uptake process (in words) [2] | [^3H] Deltorphin II uptake [2] | [^3H] Deltorphin II uptake (%) of control [2] | other results
Gly-Gly-Ile (peptide) | – | – | – | – | – | stimulation of deltorphin II uptake in SK-N-SH cells [1]: 6 to 8 fold
NCC(=O)O [Glycine] | – | – | did not compete | 7.23 ± 0.14 pmol/mg protein/30 min | 93% | –
Tyr-Gly-Gly-Phe-Met-NH2 (YGGFM; printed: Tyr-Gly-Gly-Phe-Met-) [Met-enkephalinamide] | – | – | marked inhibition | 0.69 ± 0.01 pmol/mg protein/30 min | 9% | –
NCCC(=O)N[C@@H](Cc1cnc[nH]1)C(=O)O [Carnosine, β-Ala-His] | – | – | did not compete | 6.21 ± 0.08 pmol/mg protein/30 min | 80% | –
Gly-Gly-Gly (peptide) | 9.68 | 125 % of control | – | – | – | –
β-Lipotropin (Tyr-Gly-Gly-Phe) (peptide) | 6.26 | 81 % of control | – | – | – | –
O=C(O)[C@@H]1CCCN1 [L-Proline] | – | – | did not compete | 7.31 ± 0.20 pmol/mg protein/30 min | 94% | –
N[C@@H](Cc1ccc(O)cc1)C(=O)O [L-Tyrosine] | – | – | did not compete | 7.52 ± 0.15 pmol/mg protein/30 min | 97% | –
YPLG-NH2 [tyrosine melanocyte-stimulating hormone inhibitory factor 1 (Tyr-MIF-1; Tyr-Pro-Leu-Gly-NH2)] | 9.2 | 119 % of control | – | – | – | –

Now from value to molecule, other results behind:

[3H]deltorphin II (50 nM) uptake in Tat-ARPE-19 cells, 30 min, NaCl, inhibitor 1 mM (pmol/mg protein/30 min) [1] | [3H]deltorphin II uptake (%) in Tat-ARPE-19 cells, inhibitor 1 mM [1] | Molecule | competition with deltorphin for the uptake process (in words) [2] | [^3H] Deltorphin II uptake [2] | [^3H] Deltorphin II uptake (%) of control [2] | other results
0.74 | 10 % of control | [des-Tyr1]Met-enkephalin (Gly-Gly-Phe-Met) (peptide) | – | – | – | IC50 for inhibition of [3H]deltorphin II uptake in Tat-ARPE-19 cells [1]: 31.9 mM
0.11 | 1 % of control | [Arg6, Phe7]Met-enkephalin (Tyr-Gly-Gly-Phe-Met-Arg-Phe) (peptide) | – | – | – | IC50 for inhibition of [3H]deltorphin II uptake in Tat-ARPE-19 cells [1]: 9.1 mM; [3H]deltorphin II (50 nM) uptake in control ARPE-19 cells, 30 min, NaCl, opioid peptide 1 mM (pmol/mg protein/30 min) [1]: 0.05; [3H]deltorphin II uptake (%) in control ARPE-19 cells, opioid peptide 1 mM [1]: 4 % of control
5.72 | 74 % of control | Tyr-Pro (peptide) | – | – | – | –
0.19 | 3 % of control | α-Neo-endorphin (1-6) (Tyr-Gly-Gly-Phe-Met-Lys) (peptide) | – | – | – | –
0.08 | 1 % of control | YGGFLRRQF [Dynorphin B (1-9) (Tyr-Gly-Gly-Phe-Leu-Arg-Arg-Gln-Phe)] | – | – | – | IC50 for inhibition of [3H]deltorphin II uptake in Tat-ARPE-19 cells [1]: 3.1 mM; [3H]deltorphin II (50 nM) uptake in control ARPE-19 cells, 30 min, NaCl, opioid peptide 1 mM (pmol/mg protein/30 min) [1]: 0.06; [3H]deltorphin II uptake (%) in control ARPE-19 cells, opioid peptide 1 mM [1]: 5 % of control
